Paper doi:10.1101/2021.10.20.465124v1

Substrate: COc1cc2ccc(=O)oc2cc1O[C@@H]1O[C@H](CO)[C@@H](O)[C@H](O)[C@H]1O
Assay: glucose release, D-Glucose HK assay, substrate inhibition fit
Assay type: biochemical, Streptomyces scabiei
Conditions: HEPES 50 mM pH 7.5, 40 °C, 4 min, substrate inhibition model

B1: His6-BglC (Streptomyces scabiei 87.22) (protein)
chain: MPEPVNPATPVTFPPAFLWGAATSAYQIEGAVREDGRTPSIWDTFSHTPGKTAGGENGDIAVDHYHRYRDDVAMMADLGLNAYRFSVSWSRVQPTGRGPAVQKGLDFYRRLVDELLAKGIKPAVTLYHWDLPQELEDAGGWPERDIVHRFAEYARIMGEALGDRVEQWITLNEPWCTAFLGYGSGVHAPGRTDPVASLRAAHHLNVAHGLGVSALRSAMPARNSIAVSLNSSVVRPITSSPEDRAAARKIDDLANGVFHGPMLHGAYPETLFAATSSLTDWSFVRDGDVATAHQPLDALGLNYYTPALVGAADAGLEGPRADGHGASEHSPWPAADDVLFHQTPGERTEMGWTIDPTGLHELIMRYAREAPGLPMYVTENGAAYDDKMDADGRVHDPERIAYLHGHLRAVRRAIAEGADVRGYYLWSLMDNFEWAYGYGKRFGAVYVDYATLTRTPKSSAHWYGQAAKTGALPPLAPAPA
Km: 300 µM
kcat: 9.4 s⁻¹
